Data: US20090280535, “SUMO Fusion Protein Expression System for Producing Native Proteins” (Academia Sinica, published 2009)

Target: T1, RecA (Escherichia coli, UniProt P0A7G6 P0A7G6:2-353)
Experiment: competition; 80 uM oligo competes against 8 uM ds-PhiX174 in EMSA; no significant effect at 2, 4 or 8 uM
Settings: tags: none (released from His6-Smt3-RecA by Ulp1 403-621 cleavage)
Procedure: (§1) The biological activities of the purified RecA protein was tested as follows. First, an electrophoretic mobility shift assay was performed to examine whether the RecA protein was capable of binding to DNA, following the method described in Chen et al., Proc. Natl. Acad Sci USA 101: 10572-10577 (2004). […] Six oligonucleotides, i.e., (CT)₂₀, (CA)₂₀, (GT)₂₀, (GA)₂₀, (AT)₂₀, and (CG)₂₀ described in Biet et al., Nucleic Acids Res 27:596-600 (1999), were used to determine the preference of the RecA protein for binding to double-strand (ds) or single-strand (ss) DNAs. 80 μM of each of the oligonucleotides was incubated with the RecA protein in the presence of circular ds-ΦX174 (8 μM) DNA and then a mobility shift assay was performed to examine the binding between the RecA protein and the ds- or ss-DNAs.

T1 sequence (P0A7G6 2-353, one chain of several): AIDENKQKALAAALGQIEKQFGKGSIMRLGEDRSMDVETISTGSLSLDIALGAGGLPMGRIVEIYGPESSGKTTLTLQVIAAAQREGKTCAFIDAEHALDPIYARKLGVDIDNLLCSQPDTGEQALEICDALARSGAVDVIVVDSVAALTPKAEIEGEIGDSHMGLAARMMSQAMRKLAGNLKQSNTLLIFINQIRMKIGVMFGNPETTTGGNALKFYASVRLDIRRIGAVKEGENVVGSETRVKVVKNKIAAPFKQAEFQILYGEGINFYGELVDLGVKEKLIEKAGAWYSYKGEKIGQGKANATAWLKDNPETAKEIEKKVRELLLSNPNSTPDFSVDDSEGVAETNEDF

Binding result, binds:
CTCTCTCTCTCTCTCTCTCTCTCTCTCTCTCTCTCTCTCT (ssDNA) [(CT)20]

Target: T1, RecA
Experiment: competition; 80 uM oligo competes against 8 uM ds-PhiX174 in EMSA
Settings: tags: none (released from His6-Smt3-RecA by Ulp1 403-621 cleavage)
Procedure: as §1

Binding result, binds:
GTGTGTGTGTGTGTGTGTGTGTGTGTGTGTGTGTGTGTGT (ssDNA) [(GT)20]
GAGAGAGAGAGAGAGAGAGAGAGAGAGAGAGAGAGAGAGA (ssDNA) [(GA)20]
CGCGCGCGCGCGCGCGCGCGCGCGCGCGCGCGCGCGCGCG (ssDNA) [(CG)20]
CACACACACACACACACACACACACACACACACACACACA (ssDNA) [(CA)20]
ATATATATATATATATATATATATATATATATATATATAT (ssDNA) [(AT)20]
